Results reported in patent publication CN117024592A (WEST CHINA HOSPITAL SICHUAN UNIV, dated 2023).
Each block holds one binder with its values, some of them ahead of it.

Key:
鼠源B7H3(稳定表达细胞株mB7H3-CHO) = molecular target: T1, 鼠源B7H3(稳定表达细胞株mB7H3-CHO) (mouse, UniProt Q8VE98 29-316); assay: flow cytometry, hybridoma supernatant on mB7H3-CHO cells
T1 construct: whole, on cells; also called 鼠B7H3蛋白
T1 sequence (looked up): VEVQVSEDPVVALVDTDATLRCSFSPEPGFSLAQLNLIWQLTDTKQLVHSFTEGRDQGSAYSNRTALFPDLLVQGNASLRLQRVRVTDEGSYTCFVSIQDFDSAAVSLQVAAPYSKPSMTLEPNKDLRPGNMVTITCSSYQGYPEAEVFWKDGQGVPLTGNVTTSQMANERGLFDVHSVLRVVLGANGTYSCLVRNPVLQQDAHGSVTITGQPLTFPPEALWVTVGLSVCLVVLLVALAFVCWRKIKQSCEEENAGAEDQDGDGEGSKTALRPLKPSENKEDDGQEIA

人源B7H3(细胞表面表达) [1] = molecular target: T2, 人源B7H3(细胞表面表达) (human, UniProt Q5ZPR3 29-534); assay: flow cytometry, hybridoma supernatant on cells expressing B7H3
T2 construct: whole, on cells; in the ADCC assay the protein is the endogenous B7H3 of A375 cells; also called CD276; 人B7H3
T2 sequence (looked up): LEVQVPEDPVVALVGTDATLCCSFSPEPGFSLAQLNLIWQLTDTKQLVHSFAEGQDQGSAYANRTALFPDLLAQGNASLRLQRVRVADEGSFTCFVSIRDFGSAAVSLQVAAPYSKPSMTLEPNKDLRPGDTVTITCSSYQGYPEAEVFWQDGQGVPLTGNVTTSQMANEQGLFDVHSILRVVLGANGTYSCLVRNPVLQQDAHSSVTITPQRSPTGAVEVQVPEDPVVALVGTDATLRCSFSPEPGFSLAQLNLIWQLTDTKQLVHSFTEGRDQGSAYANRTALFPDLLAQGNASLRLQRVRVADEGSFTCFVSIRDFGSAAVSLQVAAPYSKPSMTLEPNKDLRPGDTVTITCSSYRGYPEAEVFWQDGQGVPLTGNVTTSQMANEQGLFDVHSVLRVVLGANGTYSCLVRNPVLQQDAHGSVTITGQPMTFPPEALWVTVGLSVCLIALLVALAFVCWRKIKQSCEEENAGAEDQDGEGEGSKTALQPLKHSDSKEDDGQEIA

B7H3-His重组蛋白 = molecular target: T3, B7H3-His重组蛋白 (human, UniProt Q5ZPR3 29-466); assay: SPR (Biacore), B7H3-His amine-coupled to CM5 chip, antibody as analyte
T3 construct: extracellular domain; also called 携带His标签的重组B7H3蛋白; not shown: C-terminal His tag
T3 sequence (looked up): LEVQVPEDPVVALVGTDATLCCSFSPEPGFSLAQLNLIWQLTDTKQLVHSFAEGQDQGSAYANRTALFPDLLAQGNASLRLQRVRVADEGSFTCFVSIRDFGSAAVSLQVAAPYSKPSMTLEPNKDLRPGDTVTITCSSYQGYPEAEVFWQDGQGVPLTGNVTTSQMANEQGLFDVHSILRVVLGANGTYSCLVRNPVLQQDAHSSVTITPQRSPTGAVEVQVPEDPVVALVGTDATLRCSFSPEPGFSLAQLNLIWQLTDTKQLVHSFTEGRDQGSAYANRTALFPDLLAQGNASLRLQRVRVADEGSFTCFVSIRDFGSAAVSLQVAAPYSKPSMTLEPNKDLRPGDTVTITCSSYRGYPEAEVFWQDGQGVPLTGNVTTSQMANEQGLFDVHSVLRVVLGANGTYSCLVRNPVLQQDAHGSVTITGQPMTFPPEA

人源B7H3(细胞表面表达) [2] = molecular target: T2, 人源B7H3(细胞表面表达); assay: flow cytometry on CHO cells stably expressing B7H3

- binding result (人源B7H3(细胞表面表达) [2]): binds
B3: 嵌合抗体J65(cJ65) (antibody, V domains shown)
VH: EVQLQESGGDLVKPGGSLKLSCEASGFTFSSHGMSWIRQTPDKRLDWVATISGGGRYSYYPDNIQGRFTISRDNAKDTLYLQMSSLQSEDTALYYCARHWDGYLDYWGQGTTLTVSS
VL: DIVMTQTPASLSASVGETVTITCRPSENIYSYLAWYQQKQGKSPQLLVYNAKTLTEGAPSRFSGSGSGTQFSLKINSLQPEDFGIYYCQHHYGPPPYTFGGGTKVEIK
notes: also called cJ65-1

- binding result (人源B7H3(细胞表面表达) [2]): binds
- binding result (B7H3-His重组蛋白): binds
B4: 人源化单抗huJ65-2 (antibody, V domains shown)
VH: EVQLVESGGGLVQPGGSLRLSCEASGFTFSSHGMSWVRQAPGKGLEWVATISGGGRYSYYPDNIQGRFTISRDNAKNSLYLQMNSLRAEDTAVYYCARHWDGYLDYWGQGTLVTVSS
VL: DIQMTQSPSSLSASVGDRVTITCRPSENIYSYLAWYQQKPGKAPKLLVYNAKTLTEGAPSRFSGSGSGTDFTLTISSLQPEDFATYYCQHHYGPPPYTFGQGTKVEIK
notes: also called hJ65-2; 人源化抗体2

More lines, now with the values behind:

B1: 鼠源单克隆抗体J65(杂交瘤克隆J65上清) (antibody, V domains shown)
VH: B3 VH
VL: B3 VL
notes: Mouse monoclonal antibody as secreted by the hybridoma (supernatant used in flow cytometry); also called 杂交瘤J65; 单抗J65
- binding result (鼠源B7H3(稳定表达细胞株mB7H3-CHO)): no binding
- binding result (人源B7H3(细胞表面表达) [1]): binds
- binding result (B7H3-His重组蛋白): binds

B2: 重组鼠源单抗J65(mJ65) (antibody, V domains shown)
VH: B3 VH
VL: B3 VL
notes: also called 重组鼠单抗mJ65
- binding result (人源B7H3(细胞表面表达) [2]): binds
